# Data published in patent publication US20030235863A1.
# Biological target: FPR-GFP fusion protein (human) (UniProt P21462)
# Experiment: flow cytometry, LRG assembly on DCNi G beads with 30 nM FPR-GFP
# Sequence of FPR-GFP fusion protein (human) (P21462 other isoform, or with tags, fused parts or gaps): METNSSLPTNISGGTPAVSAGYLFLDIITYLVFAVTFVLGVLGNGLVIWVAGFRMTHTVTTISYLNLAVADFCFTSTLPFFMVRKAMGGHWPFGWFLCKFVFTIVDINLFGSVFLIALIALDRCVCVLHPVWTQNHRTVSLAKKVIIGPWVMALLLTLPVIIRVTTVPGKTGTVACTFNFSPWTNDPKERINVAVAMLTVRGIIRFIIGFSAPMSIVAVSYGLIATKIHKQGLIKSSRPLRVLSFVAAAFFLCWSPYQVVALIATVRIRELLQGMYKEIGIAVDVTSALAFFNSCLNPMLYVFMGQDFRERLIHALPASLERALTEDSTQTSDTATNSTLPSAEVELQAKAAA
substance,measurement,value
fML (peptide),EC50,5.3 µM
